Assay results reported in the supplement of paper PMC9170038.

Test system: MS2 coat protein
Experiment: apparent KD of MS2 coat protein; designed switch direction (-1 OFF switch, 1 ON switch): 1; higher = weaker reporter binding
Method in brief: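 For each design, the apparent KD is the median over clusters of curves fitted to normalised cluster fluorescence. Clusters held RNA switches with common flanks, transcribed on Illumina chips by stalled E. coli RNA polymerase. These were titrated with SNAP-549-labelled MS2 coat protein, doubling from 0.7 or 1.5 nM to 3 µM, without input, with 200 uM small-molecule ligand, or with an oligonucleotide input.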

[1] = input ligand: microRNA oligo, concentration not stated
[2] = Eterna round: R95, input ligand: FMN 200 uM
[3] = Eterna round: R95, input ligand: microRNA oligo, concentration not stated
[4] = Eterna round: R95, input ligand: none

Row | Sequence | apparent KD of MS2 coat protein [1] | apparent KD of MS2 coat protein (input ligand: FMN 200 uM) | apparent KD of MS2 coat protein (input ligand: none) | apparent KD of MS2 coat protein [2] | apparent KD of MS2 coat protein [3] | apparent KD of MS2 coat protein [4]
1 | GUGGUCAGACAUGAGGAUCACCCAUGUGGAAUAAAUAAGGGACAGGAUAUUUAAUAUAGGAUAUAGAAGAAGGGUUGGUUGGUG (Eterna round: R96, puzzle: Same State NG 3) | 0.0887 µM |  |  |  |  | 
2 | UGUUGUUAAUUAGGAUAUGGGCACAUGAGGAUCACCCAUGUAUUUUCGAUGCUAUGUGGAGACGUCUAGAAGGGAUGGCUAACA [SameState NG2 #88] (Eterna round: R96, puzzle: Same State NG 2) | 0.151 µM | 0.254 µM | 0.158 µM |  |  | 
3 | GCUCGACGUAUUGUUUACAUGAGGAUCACCCAUGUAGGUGCGAAGGAUAUCUACGUGUUUCAUGUAGAGAAGGUCGUGUCGAGC [SameState NG3 #92] (Eterna round: R96, puzzle: Same State NG 3) | 0.0425 µM | 0.0193 µM | 0.0541 µM |  |  | 
4 | AGUCCAGCCAGAGCUGGACAAAAGCAUGUACAUGAGGAUCACCCAUGUCAUGUACAAGCUUUUUGCUCGUCUUAAAA [Mat - hsa-mir-208a - Mod of JL - D2] (puzzle: Sensor for hsa-mir-208a) |  |  |  | 0.415 µM | 0.0137 µM | 0.523 µM
5 | CUGCUCGUGUGAGGAUAUGCCGCCGUUUCGGCUGCAGAAGGUGCUACGUUACAUGAGGAUCACCCAUGUCUCUGUUGUUUCGUG [salish99_SSNG1_r04_944] (Eterna round: R96, puzzle: Same State NG 1) | 0.0158 µM | 0.0207 µM | 0.0228 µM |  |  | 
6 | GUGGUCAGACAUGAGGAUCACCCAUGUGGAAUAAAUAAGGAGAAGGAUAUAGAAUAUAGGAUAUACUAGAAGGUCUGGUUGGUG (Eterna round: R96, puzzle: Same State NG 3) | 0.0637 µM |  |  |  |  | 
7 | AACAAUCUAUCUGAGGAUAUCAUGAAAUAAACAUGAGGAUCACCCAUGUGCAGGAAUACUGCAUAUGAGAAGGCAGAUAGAUUGA [salish99_ss2_r3_042] (puzzle: Same State 2) |  |  |  | 0.086 µM | 1.04 µM | 4.05 µM
8 | CCAACAUACAAUUUAAGAUCACAUGAGGAUCACCCAUGUAUGCAGGAUAUCAGCUCGAUUAGAGCUGAGAAGGGCAAUUUAAUU [SSNG3/1-A2] (Eterna round: R96, puzzle: Same State NG 3) | 0.151 µM | 0.0896 µM | 0.216 µM |  |  | 
9 | UAGAAACAUGAGGAUCACCCAUGUGUCAAAGACAUAGGAUAUCACAACUGGCGCCAGUCGUGAGAAGGGUGGUAAA [Usonesat] (puzzle: Same State 1) |  |  |  | 0.229 µM | 0.0536 µM | 0.0847 µM
10 | AAAAGACAUGAGGAUCACCCAUGUGAAAACAUACAAGGAUAUGUGUGGAAACCGUACUAUACAGAAGGUGUAUGUC [SS1 - 85] (Eterna round: R96, puzzle: Same State 1) | 0.0251 µM |  |  |  |  | 
11 | AGUCCAGCCUGAGCUGGACAAAAGCAUGUACAUGAGGAUCACCCAUGUCAUGUACAAGCUUUUUGCUCGUCUUGAAA [Zipper 46 - 9] (puzzle: Sensor for hsa-mir-208a) |  |  |  | 0.737 µM | 0.0168 µM | 0.807 µM
12 | AAGAAACAUGAGGAUCACCCAUGUAGAAAUAUGGGAGGAUAUACGAAGACGAAAGUCAAAGUAGAAGGCCUAAAAG [Mat - Same State 1 - Eli mod - D107] (Eterna round: R96, puzzle: Same State 1) | 0.054 µM | 0.0234 µM | 0.11 µM |  |  | 
13 | AUAGUUGCCGAAGGAUAUGAUGAGGAUCACCCAUCAGAAGGUUGGCUAUUGGGUGGACAUGAGGAUCACCCAUGUCCUUUGGUA (Eterna round: R96, puzzle: Same State NG 1) | 0.119 µM | 0.0951 µM | 0.147 µM |  |  | 
14 | GGCCAGAGUCAAGGAUAUGCUACCGUUUCGGUAGCAGAAGGUGAUCACAUGAGGAUCACCCAUGUAUACUGCGAGAGUAGGGCC [JL SSNG1 3.66] (Eterna round: R96, puzzle: Same State NG 1) | 0.0236 µM | 0.0945 µM | 0.197 µM |  |  | 
15 | AACCCACAUGAGGAUCACCCAUGUGUCUGAGGCACAGGAUAUCGACAGGCAAGACACCUGCGAGAAGGGUGACCUC [Same State 1 - Mod of Vinnie Diatater v.1] (puzzle: Same State 1) |  |  |  | 0.0184 µM | 0.00817 µM | 0.0279 µM
